Test [1] has as its target BbRAG1L NBD* domain (purified NBD* protein) (Branchiostoma belcheri). Nature of the test: SEC-MALS. (In general: SEC sorts molecules by how far they enter the pores of the column.)
In test [2] the target is MBP-tagged core BbRAG1L (cBbRAG1L; aa 468-1136) (Branchiostoma belcheri). The experiment in a line: SEC-MALS.

One may read the stoichiometry N as the number of molecules, sites or subunits per partner or assembly. “BbRAG1L NBD* domain (purified NBD* protein) (domain or fragment)” yielded a stoichiometry N in test [1] of 2.

“MBP-tagged full length BbRAG2L (natural protein)” gave a stoichiometry N (BbRAG2L per cBbRAG1L (2:2)) in test [2] of 1.

(Values after PMC6494689.)
